Measured values: the RNAGym collection of RNA variant scans (doi:10.7554/elife.80360)

B1: HDV Ribozyme (parent)
chain: GGCCGGCAUGGUCCCAGCCUCCUCGCUGGCGCCGGCUGGGCAACAUUCCGAGGGGACCGUCCCCUCGGUAAUGGCGAAUGGGACCCA

Variants of: B1
Assay: self-cleavage, relative activity (ratio to wild type); higher = more cleavage; co-transcriptional

Row | Variant | self-cleavage
1 | GGCCGGCAUGGUCCCAGCCUCCUCGCUGGCGCCGGCUGGGCACCAUUCCGAGGGGACCGUCCCCCCGGUAAUGGCGAAUGGGACCCA | 0.482
2 | GGCCGGCAUGGUCCCAGCCUCCUCGCUGGCGCCGGCUGGGCACCAUUCCGAGGGGACCGUCCCCGCGGUAAUGGCGAAUGGGACCCA | 0.453
3 | GGCCGGCAUGGUCCCAGCCUCCUCGCUGGCGCCGGCUGGGCACCAUUCCGAGGGGACCGUCCCCUCGGCAAUGGCGAAUGGGACCCA | 0.582
4 | GGCCGGCAUGGUCCCAGCCUCCUCGCUGGCGCCGGCUGGGCACCAUUCCGAGGGGACCGUCCCCUCGGUAACGGCGAAUGGGACCCA | 0.578
5 | GGCCGGCAUGGUCCCAGCCUCCUCGCUGGCGCCGGCUGGGCACCAUUCCGAGGGGACCGUCCCCUCGGUAAUGGCGAAAGGGACCCA | 0.0791
6 | GGCCGGCAUGGUCCCAGCCUCCUCGCUGGCGCCGGCUGGGCACCAUUCCGAGGGGACCGUCCCCUCGGUAAUGGCGAACGGGACCCA | 0.113
7 | GGCCGGCAUGGUCCCAGCCUCCUCGCUGGCGCCGGCUGGGCACCAUUCCGAGGGGACCGUCCCCUCGGUAAUGGCGAAGGGGACCCA | 0.227
8 | GGCCGGCAUGGUCCCAGCCUCCUCGCUGGCGCCGGCUGGGCAGCGUUCCGAGGGGACCGUCCCCUCGGUAAUGGCGAAUGGGACCCA | 0.554
9 | GGCCGGCAUGGUCCCAGCCUCCUCGCUGGCGCCGGCUGGGCAGCAUUCCGGGGGGACCGUCCCCUCGGUAAUGGCGAAUGGGACCCA | 0.26
10 | GGCCGGCAUGGUCCCAGCCUCCUCGCUGGCGCCGGCUGGGCAGCAUUCCGAGGGGACCGUCCCCUCGGUAAUGGCGUAUGGGACCCA | 0.0504
11 | GGCCGGCAUGGUCCCAGCCUCCUCGCUGGCGCCGGCUGGGCAGCAUUCCGAGGGGACCGUCCCCUCGGUAAUGGCGAAUGGGCCCCA | 0.268
12 | GGCCGGCAUGGUCCCAGCCUCCUCGCUGGCGCCGGCUGGGCAGGAUUCCGAGGGGACCGUCCCCUCGGUAAUGGCGAAUGGGACCCA | 0.798
13 | GGCCGGCAUGGUCCCAGCCUCCUCGCUGGCGCCGGCUGGGCAGUAUUCCGAGGGGACCGUCCCCUCGGUAAUGGCGAAUGGGACCCA | 0.884
14 | GGCCGGCAUGGUCCCAGCCUCCUCGCUGGCGCCGGCUGGGCAGCAUUCAGAGGGGACCGUCCCCUCGGUAAUGGCGAAUGGGACCCA | 0.554
15 | GGCCGGCAUGGUCCCAGCCUCCUCGCUGGCGCCGGCUGGGCAGCAUUCCGAGGGGACAGUCCCCUCGGUAAUGGCGAAUGGGACCCA | 0.629
16 | GGCCGGCAUGGUCCCAGCCUCCUCGCUGGCGCCGGCUGGGCAGCAUUCCGAGGGGACGGUCCCCUCGGUAAUGGCGAAUGGGACCCA | 0.72
17 | GGCCGGCAUGGUCCCAGCCUCCUCGCUGGCGCCGGCUGGGCAGCAUUCCGAGGGGACCGUGCCCUCGGUAAUGGCGAAUGGGACCCA | 0.739
18 | GGCCGGCAUGGUCCCAGCCUCCUCGCUGGCGCCGGCUGGGCAGCAUUCCGAGGGGACCGUCGCCUCGGUAAUGGCGAAUGGGACCCA | 0.415
19 | GGCCGGCAUGGUCCCAGCCUCCUCGCUGGCGCCGGCUGGGCAGCAUUCCGAGGGGACCGUCUCCUCGGUAAUGGCGAAUGGGACCCA | 0.646
20 | GGCCGGCAUGGUCCCAGCCUCCUCGCUGGCGCCGGCUGGGCAGCAUUCCGAGGGGACCGUCCACUCGGUAAUGGCGAAUGGGACCCA | 0.642
21 | GGCCGGCAUGGUCCCAGCCUCCUCGCUGGCGCCGGCUGGGCAGCAUUCCGAGGGGACCGUCCGCUCGGUAAUGGCGAAUGGGACCCA | 0.604
22 | GGCCGGCAUGGUCCCAGCCUCCUCGCUGGCGCCGGCUGGGCAGCAUUCCGAGGGGACCGUCCCAUCGGUAAUGGCGAAUGGGACCCA | 0.612

Row | Variant | self-cleavage
23 | GGCCGGCAUGGUCCCAGCCUCCUCGCUGGCGCCGGCUGGGCAGCAUUCCGAGGGGACCGUCCCCUCGGUAAUGGCGAAUGGGAACCA | 0.712
24 | GGCCGGCAUGGUCCCAGCCUCCUCGCUGGCGCCGGCUGGGCAGCAUUCCGAGGGGACCGUCCCCUCGGUAAUGGCGAAUGGGAGCCA | 0.201
25 | GGCCGGCAUGGUCCCAGCCUCCUCGCUGGCGCCGGCUGGGCAGCAUUCCGAGGGGACCGUCCCCUCGGUAAUGGCGAAUGGGACACA | 0.44
26 | GGCCGGCAUGGUCCCAGCCUCCUCGCUGGCGCCGGCUGGGCAGCAUUCCGAGGGGACCGUCCCCUCGGUAAUGGCGAAUGGGACUCA | 0.446
27 | GGCCGGCAUGGUCCCAGCCUCCUCGCUGGCGCCGGCUGGGCAGCAUUCCUAGGGGACCGUCCCCUCGGUAAUGGCGAAUGGGACCCA | 0.658
28 | GGCCGGCAUGGUCCCAGCCUCCUCGCUGGCGCCGGCUGGGCAGCAUUCCGAGAGGACCGUCCCCUCGGUAAUGGCGAAUGGGACCCA | 0.532
29 | GGCCGGCAUGGUCCCAGCCUCCUCGCUGGCGCCGGCUGGGCAGCAUUCCGAGGCGACCGUCCCCUCGGUAAUGGCGAAUGGGACCCA | 0.511
30 | GGCCGGCAUGGUCCCAGCCUCCUCGCUGGCGCCGGCUGGGCAGCAUUCCGAGGUGACCGUCCCCUCGGUAAUGGCGAAUGGGACCCA | 0.514
31 | GGCCGGCAUGGUCCCAGCCUCCUCGCUGGCGCCGGCUGGGCAGCAUUCCGAGGGCACCGUCCCCUCGGUAAUGGCGAAUGGGACCCA | 0.743
32 | GGCCGGCAUGGUCCCAGCCUCCUCGCUGGCGCCGGCUGGGCAGCAUUCCGAGGGUACCGUCCCCUCGGUAAUGGCGAAUGGGACCCA | 0.378
33 | GGCCGGCAUGGUCCCAGCCUCCUCGCUGGCGCCGGCUGGGCAGCAUUCCGAGGGGACCAUCCCCUCGGUAAUGGCGAAUGGGACCCA | 0.811
34 | GGCCGGCAUGGUCCCAGCCUCCUCGCUGGCGCCGGCUGGGCAGCAUUCCGAGGGGACCGUCCCCUCCGUAAUGGCGAAUGGGACCCA | 0.465
35 | GGCCGGCAUGGUCCCAGCCUCCUCGCUGGCGCCGGCUGGGCAGCAUUCCGAGGGGACCGUCCCCUCGUUAAUGGCGAAUGGGACCCA | 0.436
36 | GGCCGGCAUGGUCCCAGCCUCCUCGCUGGCGCCGGCUGGGCAGCAUUCCGAGGGGACCGUCCCCUCGGUAAUGGCCAAUGGGACCCA | 0.58
37 | GGCCGGCAUGGUCCCAGCCUCCUCGCUGGCGCCGGCUGGGCAGCAUUCCGAGGGGACCGUCCCCUCGGUAAUGGCUAAUGGGACCCA | 0.892
38 | GGCCGGCAUGGUCCCAGCCUCCUCGCUGGCGCCGGCUGGGCAGCAUUCCGAGGGGACCGUCCCCUCGGUAAUGGCGAAUCGGACCCA | 0.208
39 | GGCCGGCAUGGUCCCAGCCUCCUCGCUGGCGCCGGCUGGGCAGCAUUCCGAGGGGACCGUCCCCUCGGUAAUGGCGAAUGCGACCCA | 0
40 | GGCCGGCAUGGUCCCAGCCUCCUCGCUGGCGCCGGCUGGGCAGCAUGCCGAGGGGACCGUCCCCUCGGUAAUGGCGAAUGGGACCCA | 0.997
41 | GGCCGGCAUGGUCCCAGCCUCCUCGCUGGCGCCGGCUGGGCAGCAUUCCGAGGGGACCGCCCCCUCGGUAAUGGCGAAUGGGACCCA | 0.415
42 | GGCCGGCAUGGUCCCAGCCUCCUCGCUGGCGCCGGCUGGGCAGCAUUCCGAGGGGACCGUCCCCACGGUAAUGGCGAAUGGGACCCA | 0.554
43 | GGCCGGCAUGGUCCCAGCCUCCUCGCUGGCGCCGGCUGGGCAGCAUUCCGAGGGGACCGUCCCCUCGGCAAUGGCGAAUGGGACCCA | 0.302
44 | GGCCGGCAUGGUCCCAGCCUCCUCGCUGGCGCCGGCUGGGCAGCAUUCCGAGGGGACCGUCCCCUCGGUAACGGCGAAUGGGACCCA | 0.434

Row | Variant | self-cleavage
45 | GGCCGGCAUGGUCCCAGCCUCCUCGCUGGCGCCGGCUGGGCAUCUUUCCGAGGGGACCGUCCCCUCGGUAAUGGCGAAUGGGACCCA | 0.594
46 | GGCCGGCAUGGUCCCAGCCUCCUCGCUGGCGCCGGCUGGGCAUCAUUCCGAGGGGGCCGUCCCCUCGGUAAUGGCGAAUGGGACCCA | 0.665
47 | GGCCGGCAUGGUCCCAGCCUCCUCGCUGGCGCCGGCUGGGCAUCAUUCCGAGGGGACCGUCCCCUCGGUAGUGGCGAAUGGGACCCA | 0.405
48 | GGCCGGCAUGGUCCCAGCCUCCUCGCUGGCGCCGGCUGGGCAUCAUUCCGAGGGGACCGUCCCCUCGGUAAUGGCGAGUGGGACCCA | 0.262
49 | GGCCGGCAUGGUCCCAGCCUCCUCGCUGGCGCCGGCUGGGCAUCAUUCCGAGGGGACCGUCCCCUCGGUAAUGGCGAUUGGGACCCA | 0.0489
50 | GGCCGGCAUGGUCCCAGCCUCCUCGCUGGCGCCGGCUGGGCAUAAUUCCGAGGGGACCGUCCCCUCGGUAAUGGCGAAUGGGACCCA | 1.16
51 | GGCCGGCAUGGUCCCAGCCUCCUCGCUGGCGCCGGCUGGGCAUCAUUGCGAGGGGACCGUCCCCUCGGUAAUGGCGAAUGGGACCCA | 0.435
52 | GGCCGGCAUGGUCCCAGCCUCCUCGCUGGCGCCGGCUGGGCAUCAUUCCGAGGGGAUCGUCCCCUCGGUAAUGGCGAAUGGGACCCA | 0.631
53 | GGCCGGCAUGGUCCCAGCCUCCUCGCUGGCGCCGGCUGGGCAUCAUUCCGAGGGGACCGUUCCCUCGGUAAUGGCGAAUGGGACCCA | 0.302
54 | GGCCGGCAUGGUCCCAGCCUCCUCGCUGGCGCCGGCUGGGCAUCAUUCCGAGGGGACCGUCGCCUCGGUAAUGGCGAAUGGGACCCA | 0.332
55 | GGCCGGCAUGGUCCCAGCCUCCUCGCUGGCGCCGGCUGGGCAUCAUUCCGAGGGGACCGUCUCCUCGGUAAUGGCGAAUGGGACCCA | 0.394
56 | GGCCGGCAUGGUCCCAGCCUCCUCGCUGGCGCCGGCUGGGCAUCAUUCCGAGGGGACCGUCCACUCGGUAAUGGCGAAUGGGACCCA | 0.716
57 | GGCCGGCAUGGUCCCAGCCUCCUCGCUGGCGCCGGCUGGGCAUCAUUCCGAGGGGACCGUCCCGUCGGUAAUGGCGAAUGGGACCCA | 0.506
58 | GGCCGGCAUGGUCCCAGCCUCCUCGCUGGCGCCGGCUGGGCAUCAUUCCGAGGGGACCGUCCCUUCGGUAAUGGCGAAUGGGACCCA | 0.588
59 | GGCCGGCAUGGUCCCAGCCUCCUCGCUGGCGCCGGCUGGGCAUCAUUCCGAGGGGACCGUCCCCUUGGUAAUGGCGAAUGGGACCCA | 0.575
60 | GGCCGGCAUGGUCCCAGCCUCCUCGCUGGCGCCGGCUGGGCAUCAUUCCGAGGGGACCGUCCCCUCGGUAAUGGCGAAUGGGAACCA | 0.346
61 | GGCCGGCAUGGUCCCAGCCUCCUCGCUGGCGCCGGCUGGGCAUCAUUCCGAGGGGACCGUCCCCUCGGUAAUGGCGAAUGGGACGCA | 0.609
62 | GGCCGGCAUGGUCCCAGCCUCCUCGCUGGCGCCGGCUGGGCAUCAUUCCAAGGGGACCGUCCCCUCGGUAAUGGCGAAUGGGACCCA | 0.47
63 | GGCCGGCAUGGUCCCAGCCUCCUCGCUGGCGCCGGCUGGGCAUCAUUCCGACGGGACCGUCCCCUCGGUAAUGGCGAAUGGGACCCA | 0.743
64 | GGCCGGCAUGGUCCCAGCCUCCUCGCUGGCGCCGGCUGGGCAUCAUUCCGAUGGGACCGUCCCCUCGGUAAUGGCGAAUGGGACCCA | 0.339
